Reference: patent US20180265843A1, “METHOD AND MEDIUM FOR NEURAL DIFFERENTIATION OF PLURIPOTENT CELLS” (INSERM 9INSTITUT NATIONAL DE LA SANTÉ ET DE LA RECHERCHE …, priority 2009, published 2018)

What was measured:
[1] = tested on: hES cells; assay: Real-time qPCR of lineage marker transcripts after differentiation; type: cell-based, human; details: for expression of early neural markers PAX6 and SOX1: 8 days treatment in N2B27, qPCR; for neural crest cells (PAX3+/SOX10+) and keratinocytes (Cytokeratins 8 and 18), alternative fates from primitive ectoderm: 8 days treatment, qPCR and ICC
Description: (§1) Human ES cell cultures or IFS cultures reaching 70-80% confluence were used to perform neural induction using NFS medium. Colonies were cut in pieces and manually detached in N2B27 or NFS medium completed with the Rock-inhibitor Y27632 (10 μM, Calbiochem). Clusters were transferred for 6 h in a low attachment Petri dish in order to completely starve them from the influence of the feeders. Finally, the hES or IFS suspension was plated in the same medium at a 1:1 ratio in culture dishes pre-coated with poly-ornithin and laminin (2 μg/ml, Sigma). The day after and then every other day, the medium was changed for NFS medium without Y27632.
Total RNA was isolated using the RNeasy Mini Kit (Qiagen) according to the manufacturer's instructions. A total of 500 ng of RNA were reverse transcribed into cDNA with SuperScript III (Invitrogen) using random primers. Real-time Q-PCR was performed with SYBR Green as a probe on a LC480 Real-Time system (Roche). Quantification was performed at a threshold detection line (Ct value). The Ct of each target gene was normalized against that of the cyclophilin as a housekeeping gene. The 2-ΔΔCt method was used to determine the relative level of expression of each gene. Data were expressed as mean±SEM. Primer sequences are listed in follow.

[2] = tested on: hES cells; assay: FACS analysis of culture composition after differentiation with Noggin, SB431542 or both (NFS); type: cell-based, human; details: for differentiation of hES cells into an alternative fate than the neural lineage: 8 days treatment in N2B27; for proportion of neural cells, in words: 8 days treatment in N2B27, FACS
Text: A—FACS analyses of the composition of the whole culture after 8 days of differentiation in N2B27 alone or completed with Noggin, SB431542 or both (NFS). B—QPCR quantification of transcript specific of ES cells (Oct4 and Nanog) and early neural precursors (PAX6 and SOX1) for each condition of differentiation.
as §1
Cells were collected using trypsin and fixed with 2% PFA for 15 min at 4° C. Permeabilization was performed using a PBS/0.1% saponin solution 10 min at RT. The same solution was then used to dilute primary antibodies as followed: mouse monoclonal OCT4 antibody linked to phycoerythrin (oct4-PE, 1:10°, BD Biosciences) and polyclonal rabbit anti-SOX2 antibody (1:500°, Chemicon). Cells were exposed to the mixture of primary antibodies 45 min at RT. An additional incubation with anti-rabbit secondary antibodies linked to AlexaFluo 488 was performed during 30 min at RT in order to detect SOX2 unconjugated antibodies. FACS analysis was performed using a Becton Dickinson FACScalibur™ flow cytometer.
We first monitored the efficiency of neural differentiation obtained only by removing from the culture medium any known instructive signals for alternative cell fates. We used N2B27 medium, a defined medium previously developed to induce neural differentiation of both mouse and human embryonic stem cells in an adherent monolayer culture system (Ying et al., 2003; Lowell et al., 2006). In order to analyzed consistently differentiation of several naïve hES cell lines, we have develop a protocol of systematic counting where cells were stained using antibodies against OCT4 and SOX2 transcription factors and then, analysed using FACS technology. Cells expressing both OCT4 and SOX2 were considered as embryonic stem cells whereas cells expressing only SOX2 were counted as neural cells. Cells totally negative or expressing only OCT4 were designated as differentiated into other type of tissues or layers. FACS analysis was performed on 4 hES cell lines (Hues 24, H9, VUB01, SA01), 8 days after platting on laminin in N2B27. Neural differentiation was obtained with all cell lines, but the efficiency of differentiation appeared highly variable depending of the cell line used, ranging from 33.84% for SA01 line to 82.33% for VUB01 line (FIG. 1-A).

[3] = 8 days of differentiation, qPCR

Molecule	markers of primitive endoderm (SOX17, FOXA1) and primitive mesoderm (Brachyury, FLK1) [1, 3]	expression of early neural markers PAX6 and SOX1 [1]	neural crest cells (PAX3+/SOX10+) and keratinocytes (Cytokeratins 8 and 18), alternative fates from primitive ectoderm [1]	differentiation of hES cells into an alternative fate than the neural lineage [2]	proportion of neural cells, in words [2]	transcripts of extra-embryonic tissue markers CDX2 and Eomes [1, 3]	ES cells expressing Oct4 and NANOG remaining in the culture ([2]; after 8 days of treatment)
NC(=O)c1ccc(-c2nc(-c3ccc4c(c3)OCO4)c(-c3ccccn3)[nH]2)cc1 [SB431542, 4-(5-Benzol[1,3]dioxol-5-yl-4-pyrlidn-2-yl-1H-imidazol-2-yl)-benzamide hydrate, reference compound]	not detected	didn't increase robustly	detected	drastic differentiation of ES into an alternative fate	didn't increase robustly	–	–
Noggin: natural inhibitor of the BMP pathway; recombinant noggin from R&D Systems or Preprotech (protein, UniProt Q13253 28-232, looked up) Noggin: QHYLHIRPAPSDNLPLVDLIEHPDPIFDPKEKDLNETLLRSLLGGHYDPGFMATSPPEDRPGGGGGAAGGAEDLAELDQLLRQRPSGAMPSEIKGLEFSEGLAQGKKQRLSKKLRRKLQMWLWSQTFCPVLYAWNDLGSRFWPRYVKVGSCFSKRSCSVPEGMVCKPSKSVHLTVLRWRCQRRGGQRCGWIPIQYPIISECKCSC	not detected	slight increased	not detected	complete blockage	slight increased	not detected	a large number of ES cells
